As usually defined, the stoichiometry N is the number of molecules, sites or subunits per partner or assembly.

This data set deals with the molecule itself. Kind of data set: SEC. On the technique in general: Size exclusion chromatography separates by hydrodynamic size, large species first.

B1: human malic enzyme 3 (mitochondrial NADP+-dependent malic enzyme 3), residues 46-604 (enzyme, UniProt Q16798 46-604, looked up)
chain: LKKRGYDVTRNPHLNKGMAFTLEERLQLGIHGLIPPCFLSQDVQLLRIMRYYERQQSDLDKYIILMTLQDRNEKLFYRVLTSDVEKFMPIVYTPTVGLACQHYGLTFRRPRGLFITIHDKGHLATMLNSWPEDNIKAVVVTDGERILGLGDLGCYGMGIPVGKLALYTACGGVNPQQCLPVLLDVGTNNEELLRDPLYIGLKHQRVHGKAYDDLLDEFMQAVTDKFGINCLIQFEDFANANAFRLLNKYRNKYCMFNDDIQGTASVAVAGILAALRITKNKLSNHVFVFQGAGEAAMGIAHLLVMALEKEGVPKAEATRKIWMVDSKGLIVKGRSHLNHEKEMFAQDHPEVNSLEEVVRLVKPTAIIGVAAIAGAFTEQILRDMASFHERPIIFALSNPTSKAECTAEKCYRVTEGRGIFASGSPFKSVTLEDGKTFIPGQGNNAYVFPGVALGVIAGGIRHIPDEIFLLTAEQIAQEVSEQHLSQGRLYPPLSTIRDVSLRIAIKVLDYAYKHNLASYYPEPKDKEAFVRSLVYTPDYDSFTLDSYTWPKEAMNVQTV
For B1, the “stoichiometry N” value was 4.
